2 proteins from patent publication US20230075095A1 (University of Washington, published 2023) can be followed below.

This series deals with the molecule itself. In words: negative-stain TEM, homomeric self-assembly. How it is done: FIG. 2(a-b). Transmission electron micrographs of degreased I3-01 constructs. […] Images taken at 22,000× magnification.
Samples were prepared for negative stain EM by diluting to 0.05-0.075 mg/mL using a Tris-based buffer, and 6.0 μL was incubated on a glow-discharged, copper, carbon-coated grid for 1 min before quickly immersing the grid in a 60 μL drop of water. The water was blotted off within seconds by Whatman™ No. 1 filter paper, and the grid was immediately dipped into a 6.0 μL drop of stain (2% w/v uranyl formate). The stain was immediately blotted away and within seconds the grid was dipped into another 6.0 μL drop of stain, which was left on the grid for 30 seconds. At the end of this time, the stain was blotted dry and allowed to air dry for 5 minutes prior to imaging. Images were recorded on a FEI Morgagni 268 transmission electron microscope equipped with a Gatan US4000 CCD camera, using Leginon™ software for data collection at a nominal magnification of 22,000× at a defocus range comprised between −1 um and −4 um.

Residue numbers refer to the chain shown, from its start. Names may count otherwise.

B1: I3-01 H35D (designed binder)
chain: YKDEKMEELFKKHKIVAVLRANSVEEAKKKALAVFLGGVDLIEITFTVPDADTVIKELSFLKEMGAIIGAGTVTSVEQCRKAVESGAEFIVSPHLDEEISQFCKEKGVFYMPGVMTPTELVKAMKLGHTILKLFPGEVVGPQFVKAMKGPFPNVKFVPTGGVNLDNVCEWFKAGVLAVGVGSALVKGTPVEVAEKAKAFVEKIRGCTEQKLISEEDLHHHHHH
notes: One-component (homomeric) icosahedral nanoparticle secreted from HEK293F cells; also called H35D variant; degreased I3-01 construct
For B1, the binding result is “binds”.

B2: I3-01 'secretion mutations' (H35D/L171Q/S177E/V180N) (designed binder)
chain: B1 chain with L176Q, S182E, V185N
notes: One-component (homomeric) icosahedral nanoparticle secreted from HEK293F cells; also called H35D/L171Q/S177E/V180N quadruple mutant
In the case of B2, the binding result was “binds”.
